Experimental data as given in paper PMC3950679.

Key:
[1] = target: T1, Cid1 WT (Schizosaccharomyces pombe, UniProt O13833 40-377); test: EMSA
T1 sequence: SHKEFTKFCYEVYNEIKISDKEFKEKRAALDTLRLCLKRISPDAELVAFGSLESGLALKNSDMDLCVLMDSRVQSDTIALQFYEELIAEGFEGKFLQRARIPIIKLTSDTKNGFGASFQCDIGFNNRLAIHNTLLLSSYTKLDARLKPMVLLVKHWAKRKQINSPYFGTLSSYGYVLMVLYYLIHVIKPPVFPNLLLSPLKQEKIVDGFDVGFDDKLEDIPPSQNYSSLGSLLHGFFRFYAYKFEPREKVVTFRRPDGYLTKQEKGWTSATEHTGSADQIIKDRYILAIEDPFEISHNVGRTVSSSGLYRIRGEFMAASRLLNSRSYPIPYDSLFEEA

[2] = target: T2, Cid1 D160A (Schizosaccharomyces pombe, UniProt O13833 40-377, D160A); test: EMSA
T2 sequence: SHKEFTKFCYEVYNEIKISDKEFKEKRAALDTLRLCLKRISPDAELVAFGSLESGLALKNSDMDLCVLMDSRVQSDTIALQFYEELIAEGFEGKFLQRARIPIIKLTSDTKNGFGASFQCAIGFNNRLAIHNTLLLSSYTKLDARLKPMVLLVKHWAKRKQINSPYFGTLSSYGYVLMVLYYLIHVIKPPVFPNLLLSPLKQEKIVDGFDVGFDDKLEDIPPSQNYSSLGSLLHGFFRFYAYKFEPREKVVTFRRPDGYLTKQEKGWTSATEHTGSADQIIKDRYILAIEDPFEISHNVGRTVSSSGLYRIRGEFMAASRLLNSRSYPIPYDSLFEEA

B1: U15 (ssRNA)
RNA: UUUUUUUUUUUUUUU
[1]
  Kd: ~1000 nM
[2]
  Kd: ~1000 nM
